The record followed here is patent US20070104719A1, “Caspase Activated Prodrugs Therapy” (Genentech, Inc., priority 2000, published 2007).

For series [1], the system named is MCF7 breast carcinoma cells. The series is described as follows: Cellular accumulation of doxorubicin and Ac-DEVD-PABC-doxorubicin (fluorescence). In kind it is cell-based, human. The settings on record: 10 μM, 0 to 2 h at 37° C. The method, then: (§1) FIG. 1. Cellular accumulation of caspase cleavable prodrug Ac-DEVD-PABC-Doxorubicin in SK-BR-3 and MCF7 cells. Uptake of doxorubicin was estimated from a standard curve prepared using known quantities of doxorubicin that were added to the previously untreated cells.
(§2) SK-BR-3 and MCF7 breast carcinoma cells (American Type Culture Collection (ATCC), Rockville, Md.) were cultured in Dulbecco's modified Eagle's medium:Ham's nutrient F-12 (50:50) supplemented with […] glutamine, 100 units/mL penicillin, […] streptomycin (Gibco BRL, Grand Island, N.Y.), and 10% (w/v) bovine fetal serum (Hyclone, Logan, Utah) (cell media) at 37° C., 5% CO2. Adherantly growing cells were detached by treatment with phosphate-buffered saline containing 0.05% trypsin, 0.6 mM EDTA (5 min) and then resuspended at 10^6 cells per mL in fresh cell media. Cells were either used directly (“untreated”) or supplemented with doxorubicin or Ac-DEVD-PABC-doxorubicin into a final concentration of 10 μM. […] Fluorescence measurements were then undertaken using a fluorescent plate reader (Fluoroskan, Helsinki, Finland) with absorption and emission wavelengths of 485 and 590 nm respectively. Uptake of doxorubicin was estimated from a standard curve prepared using known quantities of doxorubicin that were added to the previously untreated cells.

In series [2] the test system is SK-BR-3 breast carcinoma cells. Described as above. In kind it is cell-based, human. To be noted: SK-BR-3 cells, 10 μM, 0 to 2 h at 37° C. As to the method: as §1, §2
For series [3], the target named is T1, recombinant human caspase 3 (Homo sapiens, UniProt P42574).
T1 construct: purchased Calbiochem
T1 sequence (P42574 29-175 limits assumed): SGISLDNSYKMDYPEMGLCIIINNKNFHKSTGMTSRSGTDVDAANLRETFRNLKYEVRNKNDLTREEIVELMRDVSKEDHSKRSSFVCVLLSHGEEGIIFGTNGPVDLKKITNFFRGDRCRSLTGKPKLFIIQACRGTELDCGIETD
T1 sequence (P42574 176-277 limits assumed): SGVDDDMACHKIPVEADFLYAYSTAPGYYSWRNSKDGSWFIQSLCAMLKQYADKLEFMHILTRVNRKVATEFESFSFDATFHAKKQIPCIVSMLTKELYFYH
Kind of series: Activation of Ac-DEVD-PABC-taxol by caspase 3 (HPLC). In kind it is biochemical. The method, then:
Ac-DEVD-PABC-taxol (35 μM) was incubated with 1 ng recombinant human caspase 3 (Calbiochem) in the presence or absence of the caspase 3 inhibitor, Z-DEVD-FMK (400 μM) (Calbiochem) in phosphate-buffered saline containing 5% (v/v) dimethyl sulfoxide and 45 mM DTT in a total reaction volume of 700 μL. A control reaction was performed in which caspase 3 and inhibitor were omitted. Reactions were incubated for 0 to 2 h at 37° C. and then frozen in dry ice. Reactions were then analyzed by reverse phase HPLC using a Microsorb-MV C18 reverse-phase column (4.6 mm internal diameter×250 mm length, 5 μm particle size, 100 Å pore size) (Rainin) under isocratic conditions. 0.1% (v/v) TFA, 46% (v/v) acetonitrile at a now rate of 1.5 mL/min whilst monitoring the absorbance at 254 nm. The retention times for taxol and Ac-DEVD-PABC-taxol were 13.3 min 10.4 min, respectively.

Series [4] has as its target T2, recombinant commercial caspase 3 (Homo sapiens, UniProt P42574).
T2 construct: purchased
T2 sequence (P42574 29-175 limits assumed): T1 sequence (P42574 29-175 limits assumed)
T2 sequence (P42574 176-277 limits assumed): T1 sequence (P42574 176-277 limits assumed)
Kind of series: Hydrolysis of Ac-DEVD-pna by caspase 3. In kind it is biochemical. The source says: (§3) The most favorable substrates for caspases 2, 3 and 7 are DEHD (SEQ ID NO:8), DEVD (SEQ ID NO:3) and DEVD (SEQ ID NO:3) respectively. These sequences are very poor substrates for granzyme B which has the preferred substrate IEPD (SEQ ID NO:13) (Thornberry et al., (1997) supra) and for proinflammatory caspases (caspases 1, 4, 5, 11, 12, 13) which have a preference for a large hydrophobic residue at S4 (caspase 1 WEHD (SEQ ID NO:6), caspase 4 (W/L)EHD, caspase 5 (W/L)EHD).

Series [5] has as its target granzyme B (Homo sapiens, UniProt P10144). Kind of series: Cleavage of Ac-DEVD-pna by granzyme B. In kind it is biochemical.
From the text: as §3

Starred links: 1 amine or outer side, 2 acyl side, 3 side chain; linkers in the order of their positions; H or OH if unused. Non-standard residues stand in square brackets, D forms with d. Residues, ends and D or L forms follow the SMILES beside them. *: point of attachment. Doxorubicin(3'-N) = COc1cccc2c1C(=O)c1c(O)c3c(c(O)c1C2=O)C[C@@](O)(C(=O)CO)C[C@@H]3O[C@H]1C[C@H](N*)[C@H](O)[C@H](C)O1; PABC = O=C(OCc1ccc(N[*:1])cc1)[*:2]

Sequence of granzyme B (P10144 21-247, species assumed): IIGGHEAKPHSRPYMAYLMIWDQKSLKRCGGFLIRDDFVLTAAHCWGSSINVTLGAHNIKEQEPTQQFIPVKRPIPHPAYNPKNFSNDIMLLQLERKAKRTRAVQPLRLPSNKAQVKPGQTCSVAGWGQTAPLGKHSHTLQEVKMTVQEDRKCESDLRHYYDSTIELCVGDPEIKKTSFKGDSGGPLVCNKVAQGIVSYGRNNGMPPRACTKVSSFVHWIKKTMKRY

On to `COc1cccc2c1C(=O)c1c(O)c3c(c(O)c1C2=O)C[C@@](O)(C(=O)CO)C[C@@H]3O[C@H]1C[C@H](NC(=O)OCc2ccc(NC(=O)[C@H](CC(=O)O)NC(=O)[C@@H](NC(=O)[C@H](CCC(=O)O)NC(=O)[C@H](CC(=O)O)NC(C)=O)C(C)C)cc2)[C@H](O)[C@H](C)O1` [Ac-DEVD-PABC-Doxorubicin, Ac-DEVD-PABC-doxorubicin] (Ac-DEVD[PABC]-{Doxorubicin(3'-N)}), for which the accumulation inside cells entry in series [1] and in series [2] was “did not” throughout.

For “Ac-DEVD-PABC-paclitaxel [Ac-DEVD-PABC-taxol]”, the “activation by caspase 3 (conversion to taxol)” value in series [3] (35 μM prodrug, 1 ng caspase 3) is “efficiently activated”. For the same compound, the “Conversion (%)” value in series [3] (Caspase 3 + inhibitor (Z-DEVD-FMK 400 μM), incubation time 0 min) worked out at 0%; in series [3] (Caspase 3 + inhibitor (Z-DEVD-FMK 400 μM), incubation time 30 min) it was 0%; in series [3] (Caspase 3 + inhibitor (Z-DEVD-FMK 400 μM), incubation time 120 min), 0%; in series [3] (Caspase 3, incubation time 0 min) it was 0%; in series [3] (Caspase 3, incubation time 30 min) it was 65%; in series [3] (Caspase 3, incubation time 120 min) it was 100%.

Regarding “acetyl-L-Asp-L-Glu-L-Val-L-Asp-p-nitroanilide [Ac-DEVD-pna]”, the “hydrolysis by caspase 3” value in series [4] was “readily hydrolyzed”. In addition, the “cleavage by granzyme B” value in series [5] was “no detectable cleavage”.
